Assays:
human Aβ1-42 peptide = human Aβ1-42 peptide (human); assay: sandwich ELISA, BAMB31_1 coated, JRF/cAβ42/26-HRPO detection
Protocol: For the selected Aβ3pE monoclonal antibody BAMB31, the cross-reactivity with rodent Aβ3pE-40 (SEQ ID NO:45) and human Aβ1-40 (SEQ ID NO:41), Aβ1-42 (SEQ ID NO: 48), Aβ11pE-40(SEQ ID NO:49) and Aβ11pE-42 (SEQ ID NO:50) was evaluated using synthetic peptides. The combination BAMB31 +JRF/cAβ40/28-HRPO was used to investigate the cross-reactivity with Aβ1-40 (SEQ ID NO:41), Aβ11pE-40 (SEQID NO: 49) and rodent Aβ3pE-40 (SEQ ID NO:45), and the combination BAMB31+JRF/cAβ42/26-HRPO was used to investigate the cross-reactivity with Aβ1-42 (SEQ ID NO:48) and Aβ11pE-42 (SEQ ID NO:50). Concentrations up to 10,000 pg/mL were tested.
Materials and Methods: Standards were dissolved in dimethylsulphoxide (DMSO) (Sigma) at 0.1 mg/mL and stored at −80° C. For use in ELISA, peptides were further diluted in 0.1% casein in PBS down to 1 pg/mL. Ninety-six-well-plates (Maxisorb ELISA plates; NUNC) were coated overnight at 4° C. with monoclonal antibodies from BAMB31_1 at a concentration of 1.5 μg/mL in coating buffer. The next day, plates were washed and blocked with 0.1% casein in PBS for 1-4 hours at room temperature. Standards were incubated overnight at 4° C. together with HRPO-labeled secondary antibody (JRF/cAβ40/28-HRPO or JRF/cAβ42/26-HRPO). […]

fibronectin [1] = assay: SPR; KD for this target divided by KD for human Aβ 3pE-28
Protocol: (§1) In some instances, binding affinities and specificity of anti-Aβ 3pE mAbs were measured by SPR performed using different instruments (Biacore T200, Biacore 8K or MASS-2 (Biacore, Inc.)) and anti-human or anti-mouse immunoglobulin biosensor surfaces. Anti-human or anti-mouse immunoglobulin antibodies were covalently coupled to the surface of CM4 or CM5 sensor chips (GE Healthcare) using manufacturer instructions for amine-coupling chemistry. Antibodies of interest were captured on the anti-human or mouse immunoglobulin sensor chip to a level of 300-400 RU, followed by injection of Aβ peptides or proteins (examples: human Aβ 3pE-40(SEQ ID NO:40), Aβ 3pE-28 (SEQ ID NO:42), scrambled Aβ 3pE-28 (SEQ ID NO:44), Aβ 1-28 (SEQ ID NO:43), mouse Aβ 3pE-28 (SEQ ID NO:46), or Fibronectin) at various concentrations in HEPES Buffered Saline containing 0.005% surfactant P20 (Tween™ 20). The surface was regenerated with 2 pulses injections of 30 μL of 10 mM Gly pH1.5 at 100 μL/min. Data reported is the difference in SPR signal between the flow cell containing the captured antibody and a reference cell without captured antibody. Additional instrumental contributions to the signal were removed by subtraction of the data from the blank injection from the reference-subtracted signal. When applicable data were analyzed by fitting association and dissociation phases at all concentrations (global fit) with a 1:1 binding model using the Biaevaluation software (Biacore, Inc.). Otherwise the data was evaluated qualitatively for YES/NO binding.

[2] = target: T1, 3pE Aβ peptide (antigen, form not stated); assay: SPR; antigen peptide not named
T1 construct: also called the peptide

fibronectin [3] = assay: SPR; no binding up to 1.2 µM
Protocol: as §1

4U-3pE-beta-Amyloid = assay: SPR; 4U-3pE-beta-Amyloid 0.6 to 4.5 nM
[4] = target: T1, 3pE Aβ peptide (antigen, form not …); assay: SPR; antigen peptide not named; range over the HFA variants

Sequence of human Aβ1-42 peptide (human) (peptide, as listed by the source): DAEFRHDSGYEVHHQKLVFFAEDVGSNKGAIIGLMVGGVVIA

Row | Binder | Kd [2] [nM] | Kd (4U-3pE-beta-Amyloid) [nM] | koff (4U-3pE-beta-Amyloid) [s⁻¹] | kon (4U-3pE-beta-Amyloid) [M⁻¹ s⁻¹] | further results
1 | BAMB31_1 (antibody, mouse IgG1, V domains shown, Hybridoma antibody) VH: EIQLQQSGPELVKPGTSVKVSCKASGHVFTSYDMYWVKQSHGKSLEWIGYIDSDNGDTSYNQKFKGKATLTVDKSSSTAYMHLNSLTSEDSAVYYCAYYRYAMDYWGQGTSVTVSS VL: not shown |  |  |  |  | binding result (human Aβ1-42 peptide): no binding (tested: 10 ng/ml)
2 | BAMB246 (human IgG1 chimera) (antibody, Mouse variable regions on a human IgG1 constant region; also called BAMB246 (human chimeric parent)) heavy: not shown light: DVVMTQTPLTLSVTIGQPASISCKSSQSLLDSNGKTYLTWLLQRPGQSPKRLIYLVSKLDSGVPDRFTGSGAGTDFTLKIIRVEAEDLGVYYCWQGTHFPYTFGGGTKLEIKRTVAAPSVFIFPPSDEQLKSGTASVVCLLNNFYPREAKVQWKVDNALQSGNSQESVTEQDSKDSTYSLSSTLTLSKADYEKHKVYACEVTHQGLSSPVTKSFNRGEC | 0.0139 |  |  |  | Fold Selectivity (fibronectin [1]): > 95000 fold; Kd (fibronectin [3]): > 1200 nM
3 | BAMB674 (antibody, human IgG1, kappa, Lead HFA variant, wild type human IgG1; HCDR2 N55S; also called BAMAB674; BAMB31 HFA mAb, wild type IgG1) heavy: not shown light: DVVMTQSPLSLPVTLGQPASISCKSSQSLLDSRAKTYLTWLQQRPGQSPRRLIYLVSKLDSGVPDRFSGSGSGTDFTLKISRVEAEDVGVYYCWQGTHFPYTFGGGTKLEIKRTVAAPSVFIFPPSDEQLKSGTASVVCLLNNFYPREAKVQWKVDNALQSGNSQESVTEQDSKDSTYSLSSTLTLSKADYEKHKVYACEVTHQGLSSPVTKSFNRGEC |  | 0.0401 | 0.000136 | 3.39e+06 | Fold Selectivity (fibronectin [1]): > 47000 fold; Kd (fibronectin [3]): > 1200 nM
4 | BAMB701 (antibody, human IgG1, kappa) heavy: QVQLVQSGAEVKKPGASVKVSCKASGHVFTSYDMYWVRQAPGQGLEWIGYIDSDSGDTSYNQKFKGRVTLTVDTSTSTVYMELSSLRSEDTAVYYCAYYRYAMDYWGQGTLVTVSSASTKGPSVFPLAPSSKSTSGGTAALGCLVKDYFPEPVTVSWNSGALTSGVHTFPAVLQSSGLYSLSSVVTVPSSSLGTQTYICNVNHKPSNTKVDKKVEPKSCDKTHTCPPCPAPELLGGPSVFLFPPKPKDTLYITREPEVTCVVVDVSHEDPEVKFNWYVDGVEVHNAKTKPREEQYNSTYRVVSVLTVLHQDWLNGKEYKCKVSNKALPAPIEKTISKAKGQPREPQVYTLPPSREEMTKNQVSLTCLVKGFYPSDIAVEWESNGQPENNYKTTPPVLDSDGSFFLYSKLTVDKSRWQQGNVFSCSVMHEALHNHYTQKSLSLSPGK light: DVVMTQSPLSLPVTLGQPASISCKSSQSLLDSRAKTYLTWLQQRPGQSPRRLIYLVSKLDSGVPDRFSGSGSGTDFTLKISRVEAEDVGVYYCWQGTHFPYTFGGGTKVEIKRTVAAPSVFIFPPSDEQLKSGTASVVCLLNNFYPREAKVQWKVDNALQSGNSQESVTEQDSKDSTYSLSSTLTLSKADYEKHKVYACEVTHQGLSSPVTKSFNRGEC |  | 0.0314 | 9.47e-05 | 3.01e+06 | 
5 | BAMB700 (antibody, human IgG1, kappa) heavy: not shown light: DVVMTQSPLSLPVTLGQPASISCKSSQSLLDSRAKTYLTWLQQRPGQSPRRLIYLVSKLDSGVPDRFSGSGSGTDFTLKISRVEAEDVGVYYCWQGTHFPYTFGQGTKLEIKRTVAAPSVFIFPPSDEQLKSGTASVVCLLNNFYPREAKVQWKVDNALQSGNSQESVTEQDSKDSTYSLSSTLTLSKADYEKHKVYACEVTHQGLSSPVTKSFNRGEC |  | 0.0342 | 9.86e-05 | 2.88e+06 | 
6 | BAMB631 (antibody, human IgG1, kappa, V domains shown, BAMB31 HFA variant, human IgG1) VH: QVQLVQSGAEVKKPGASVKVSCKASGHVFTSYDMYWVRQAPGQSLEWMGYIDSDNGDTSYNQKFKGRVTLTVDTSTSTVYMELSSLRSEDTAVYYCAYYRYAMDYWGQGTLVTVSS VL: DVVMTQSPLSLPVTLGQPASISCKSSQSLLDSRAKTYLTWLLQRPGQSPRRLIYLVSKLDSGVPDRFSGSGSGTDFTLKISRVEAEDVGVYYCWQGTHFPYTFGGGTKLEIKR | 0.018 |  |  |  | 
7 | BAMB630 (antibody, human IgG1, kappa, V domains shown, BAMB31 HFA variant, human IgG1) VH: QVQLVQSGAEVKKPGASVKVSCKASGHVFTSYDMYWVKQAPGQSLEWIGYIDSDNGDTSYNQKFKGKVTLTVDTSTSTVYMELSSLRSEDTAVYYCAYYRYAMDYWGQGTLVTVSS VL: DVVMTQSPLSLPVTLGQPASISCKSSQSLLDSRAKTYLTWLLQRPGQSPRRLIYLVSKLDSGVPDRFSGSGSGTDFTLKISRVEAEDVGVYYCWQGTHFPYTFGGGTKLEIKR | 0.0383 |  |  |  | 
8 | BAMB612 (antibody, human IgG1, kappa, V domains shown, BAMB31 HFA variant, human IgG1) VH: QVQLVQSGAEVKKPGASVKVSCKASGHVFTSYDMYWVRQSPGQGLEWIGYIDSDNGDTSYNQKFKGRVTLTVDTSTSTVYMELSSLRSEDTAVYYCAYYRYAMDYWGQGTLVTVSS VL: DVVMTQSPLSLPVTLGQPASISCKSSQSLLDSRAKTYLTWLQQRPGQSPRRLIYLVSKLDSGVPDRFSGSGSGTDFTLKISRVEAEDVGVYYCWQGTHFPYTFGGGTKLEIKR | 0.0117 |  |  |  | Kd [4]: 0.0117 nM

Second part, led by results:

Row | Kd [2] [nM] | Kd (4U-3pE-beta-Amyloid) [nM] | koff (4U-3pE-beta-Amyloid) [s⁻¹] | kon (4U-3pE-beta-Amyloid) [M⁻¹ s⁻¹] | Binder | further results
9 |  | 0.0443 | 0.000166 | 3.74e+06 | BAMB675 (antibody, human IgG1, kappa, Same V regions as BAMB674 on IgG1 with M37Y, S39T, T41E in the Fc (numbering on GenBank AEV43323); also called BAMB31 HFA mAb, +YTE IgG1) heavy: QVQLVQSGAEVKKPGASVKVSCKASGHVFTSYDMYWVRQAPGQGLEWIGYIDSDSGDTSYNQKFKGRVTLTVDTSTSTVYMELSSLRSEDTAVYYCAYYRYAMDYWGQGTLVTVSSASTKGPSVFPLAPSSKSTSGGTAALGCLVKDYFPEPVTVSWNSGALTSGVHTFPAVLQSSGLYSLSSVVTVPSSSLGTQTYICNVNHKPSNTKVDKKVEPKSCDKTHTCPPCPAPELLGGPSVFLFPPKPKDTLYITREPEVTCVVVDVSHEDPEVKFNWYVDGVEVHNAKTKPREEQYNSTYRVVSVLTVLHQDWLNGKEYKCKVSNKALPAPIEKTISKAKGQPREPQVYTLPPSREEMTKNQVSLTCLVKGFYPSDIAVEWESNGQPENNYKTTPPVLDSDGSFFLYSKLTVDKSRWQQGNVFSCSVMHEALHNHYTQKSLSLSPGK light: DVVMTQSPLSLPVTLGQPASISCKSSQSLLDSRAKTYLTWLQQRPGQSPRRLIYLVSKLDSGVPDRFSGSGSGTDFTLKISRVEAEDVGVYYCWQGTHFPYTFGGGTKLEIKRTVAAPSVFIFPPSDEQLKSGTASVVCLLNNFYPREAKVQWKVDNALQSGNSQESVTEQDSKDSTYSLSSTLTLSKADYEKHKVYACEVTHQGLSSPVTKSFNRGEC | Fold Selectivity (fibronectin [1]): > 46000 fold; Kd (fibronectin [3]): > 1200 nM
10 | 0.016 |  |  |  | BAMB614 (antibody, human IgG1, kappa, V domains shown, BAMB31 HFA variant, human IgG1) VH: QVQLVQSGAEVKKPGASVKVSCKASGHVFTSYDMYWVRQAPGQGLEWIGYIDSDNGDTSYNQKFKGRVTLTVDTSTSTVYMELSSLRSEDTAVYYCAYYRYAMDYWGQGTLVTVSS VL: DVVMTQSPLSLPVTLGQPASISCKSSQSLLDSRAKTYLTWLQQRPGQSPRRLIYLVSKLDSGVPDRFSGSGSGTDFTLKISRVEAEDVGVYYCWQGTHFPYTFGGGTKLEIKR | 
11 | 0.0183 |  |  |  | BAMB623 (antibody, human IgG1, kappa, V domains shown, BAMB31 HFA variant, human IgG1) VH: QVQLVQSGAEVKKPGASVKVSCKASGHVFTSYDMYWVRQAPGQSLEWIGYIDSDNGDTSYNQKFKGKATMTVDTSTSTVYMELSSLRSEDTAVYYCAYYRYAMDYWGQGTLVTVSS VL: DVVMTQSPLSLPVTLGQPASISCKSSQSLLDSRAKTYLTWLQQRPGQSPRRLIYLVSKLDSGVPDRFSGSGSGTDFTLKISRVEAEDVGVYYCWQGTHFPYTFGGGTKLEIKR | 
12 | 1.52 |  |  |  | BAMB611 (antibody, human IgG1, kappa, V domains shown, BAMB31 HFA variant, human IgG1) VH: QVQLVQSGAEVKKPGASVKVSCKASGHVFTSYDMYWVRQAPGQGLEWMGYIDSDNGDTSYNQKFKGRVTMTVDTSTSTVYMELSSLRSEDTAVYYCAYYRYAMDYWGQGTLVTVSS VL: DVVMTQSPLSLPVTLGQPASISCKSSQSLLDSNGKTYLTWFQQRPGQSPRRLIYLVSKLDSGVPDRFSGSGSGTDFTLKISRVEAEDVGVYYCWQGTHFPYTFGGGTKLEIKR | Kd [4]: 1.52 nM
13 | 0.0182 |  |  |  | BAMB613 (antibody, human IgG1, kappa, V domains shown, BAMB31 HFA variant, human IgG1) VH: QVQLVQSGAEVKKPGASVKVSCKASGHVFTSYDMYWVRQAPGQGLEWIGYIDSDNGDTSYNQKFKGKVTLTVDTSTSTVYMELSSLRSEDTAVYYCAYYRYAMDYWGQGTLVTVSS VL: DVVMTQSPLSLPVTLGQPASISCKSSQSLLDSRAKTYLTWLQQRPGQSPRRLIYLVSKLDSGVPDRFSGSGSGTDFTLKISRVEAEDVGVYYCWQGTHFPYTFGGGTKLEIKR | 

Reference: patent US20250320286A1 (Janssen / Centocor, published 2025)
